The target of assay [1] is His-tagged BG505 SOSIP.664 trimer produced in 293T cells (HIV-1 isolate BG505). Briefly: SPR. Also on record: kon1: unit not given here.
The target in a further assay is 3BC315 Fab. Briefly: ELISA. The conditions noted are these: read off a plot.
For assay [2], the target named is His-tagged BG505 SOSIP.664 trimer produced in 293S cells, EndoH-deglycosylated (HIV-1 isolate BG505). In words: SPR; Biacore 3000, 25 °C, HBS-EP; His-tagged trimer captured by anti-histidine antibody on CM5 to 500 RU; 3BC315 IgG or Fab titrated down in twofold steps from 1 μM; IgG fitted with a bivalent, Fab with a Langmuir model.
The target of assay [3] is BG505 SOSIP.664 trimer produced in 293S cells (HIV-1 isolate BG505). Briefly: ITC.
In assay [4] the target is BG505 SOSIP.664 trimer produced in 293S cells, deglycosylated by EndoH (HIV-1 isolate BG505). Briefly: ITC; Auto-iTC200; trimer in the cell at 4.0–5.0 μM, 3BC315 Fab in the syringe at ~20 × the molar concentration of the trimer; single-site binding model.
The next assay concerns the target 2G12. Briefly: ELISA. The settings on record: read at the highest antibody concentration, 1 µg/ml 2G12, read off a plot.
In the next assay the target is PGT145. Briefly: ELISA. The conditions noted are these: read at the highest antibody concentration, about 15 µg/ml PGT145; parent: est. 0.87; read off a plot.
The target of a further assay is 3BC176 IgG. In words: ELISA. The conditions noted are these: parent: est. 0.92; read off a plot.
For assay [5], the target named is BG505 Env on virus (HIV-1 isolate BG505).
Assay [6] deals with JR-FL Env on virus (HIV-1 isolate JR-FL) (UniProt Q75760).

For the molecule 3BC315 IgG (antibody), in [1], the Kd1 is < 10 nM, the Kd2 was 24 RU, the koff1 is < 1e-05 s⁻¹ and the koff2 came out at 0.0084 s⁻¹. In assay [1], this molecule registered a kon1 of 4900, a kon2 of 0.00034 RUs^−1 and a stoichiometry N of 1.1.
Take “D7324-tagged BG505 SOSIP.664 trimer produced in 293T cells N625Q; N637Q”: the response with 3BC315 Fab (read at the highest concentration, 10 µg/ml 3BC315 Fab, parent: est. 1.1) worked out at 0.93 OD450.
As for 3BC315 Fab, in [2], the Kd came out at 7.1 nM, the off-rate constant (koff) was 0.00059 s⁻¹ and the stoichiometry N came out at 1.9. Also, in assay [3], the Kd stood at 186 nM and the stoichiometry N came to 1.17. Moreover, in [4], the Kd stood at 167 nM and the stoichiometry N came to 1.71.
Consider “D7324-tagged BG505 SOSIP.664 trimer produced in 293T cells N88Q”, for which the response with 2G12 (parent: est. 1.2) was determined as 1 OD450; with 3BC315 Fab it was 0.98 OD450.
With “D7324-tagged BG505 SOSIP.664 trimer produced in 293T cells W623A”, the response with 2G12 (parent: est. 1.25) amounted to 1.2 OD450; in the assay with PGT145 it was 0.83 OD450; with 3BC176 IgG, 0.4 OD450.

B1: 3BC315 IgG (antibody, V domains shown)
VH: QVQLVQSGAEMKDPGASVKVSCRASGYKFTDYYMHWVRQAPGQGLEWVGWVNTNGGFTKYGAKFQGRVTVTRDTSTNTVFLELSRLTFGDTAMYFCARPMRPVSHGIDYSGLFVFQFWGRGTMVTVSS
VL: QSALTQPASVSASPGQSITISCSGTRSDVGGYDFVSWYQQHPGKVPKLIIYEVTKRPSGIPQRFSGSKSGNTASLTISGLQADDEADYYCCSYANYDKLILGGGTKLTVL
The molecule B1 displayed an IC50 of neutralisation of BG505 virus (TZM-bl) after 1, 3, 6 and 22 h pre-incubation with IgG (1.62 falling to 0.41) in assay [5] of 1.62 µg/mL. The IC50 of neutralisation of JR-FL virus (TZM-bl) after 1, 3, 6 and 22 h pre-incubation with IgG (5.84 falling to 0.83) in assay [6] is 5.84 µg/mL.

B2: 3BC176 IgG (antibody, V domains shown)
VH: QVQLMQSGAQLRDPGDSLKISCKASGYNFIDYHIHWVRLAPGRGLEWMGWIDPVGGITKYAGQFQGRLSLTRDTSTNTLFLELSRLTAGDTAVYFCARSMRPVDHGIDYSGLFVFHFWGRGSDVLVSS
VL: QSVLTQPASVSASPGQSITVSCTGSRNDVGGYDFVSWYQRHPGGVPKLIIYEISKRPSGIPQRFSGSRSGNTASLTISGLQDDDEADYYCCSYASYDRLIFGGGTRVSVL
As to B2, the IC50 of neutralisation of BG505 virus (TZM-bl) after 1, 3, 6 and 22 h pre-incubation with IgG (1.93 falling to 0.33) in [5] amounted to 1.93 µg/mL. The molecule further yielded an IC50 of neutralisation of JR-FL virus (TZM-bl) after 1, 3, 6 and 22 h pre-incubation with IgG (0.30 falling to 0.03) in assay [6] of 0.3 µg/mL.

These data come from publication PMC4586043.
